Residue numbers refer to the chain shown, from its start. Names and notes keep the numbering of the source.
B1: 항-CXCR4 키메라 Mab c515H7 (antibody, human IgG1, kappa, V domains shown)
VH: EVNLVESGGGLVQPGGSLRLSCATSGFTFTDNYMSWVRQPPGKALEWLGFIRNKANGYTTDYSASVRGRFTISRDNSQSILYLQMNALRAEDSATYYCARDVGSNYFDYWGQGTTLTVSS
VL: DIVMSQSPSSLAVSAGEKVTMSCKSSQSLFNSRTRKNYLAWYQQKPGQSPKLLIYWASARDSGVPARFTGSGSETYFTLTISRVQAEDLAVYYCMQSFNLRTFGQGTKVEIKR
B2: hz515H7 VH1 D76N VL2.1 (antibody, V domains shown)
VH: EVQLVESGGGLVQPGRSLRLSCTASGFTFTDNYMSWVRQAPGKGLEWVGFIRNKANGYTTEYAASVKGRFTISRDNSKSIAYLQMNSLKTEDTAVYYCARDVGSNYFDYWGQGTLVTVSS
VL: B1 VL with S5T, S9D, A15L, K18R, V19A, S49P, A66D, T69S
B3: 항-CXCR4 Mab 515H7 (마우스 모노클론 항체) (antibody, V domains shown)
VH: B1 VH
VL: DIVMSQSPSSLAVSAGEKVTMSCKSSQSLFNSRTRKNYLAWYQQKPGQSPKLLIYWASARDSGVPARFTGSGSETYFTLTISRVQAEDLAVYYCMQSFNLRTFGGGTKLEIK
B4: hz515H7 VH1 D76N VL2 (antibody, V domains shown)
VH: B2 VH
VL: B1 VL with S5T, A15L, K18R, V19A
notes: also called hz515H7 VH1 D76N-VL2 Mab; 인간화 515H7 Mab
B5: hz515H7 VH1 D76N VL2.2 (antibody, V domains shown)
VH: B2 VH
VL: B1 VL with S5T, S9D, A15L, K18R, V19A, S49P, A66D, L89V
B6: hz515H7 VH1 D76N VL2.3 (antibody, V domains shown)
VH: B2 VH
VL: B1 VL with S5T, S9D, A15L, K18R, V19A, S49P, A66D, R83S, V84L
B7: 515H7 인간화 VH 변형체 1 (VH1) + 마우스/키메라 VL (cVL) (antibody, human IgG1, kappa)
heavy: not shown
light: DIVMSQSPSSLAVSAGEKVTMSCKSSQSLFNSRTRKNYLAWYQQKPGQSPKLLIYWASARDSGVPARFTGSGSETYFTLTISRVQAEDLAVYYCMQSFNLRTFGQGTKVEIKRTVAAPSVFIFPPSDEQLKSGTASVVCLLNNFYPREAKVQWKVDNALQSGNSQESVTEQDSKDSTYSLSSTLTLSKADYEKHKVYACEVTHQGLSSPVTKSFNRGEC
notes: also called VH1 cVL; VH 변형체 1 (VH1) 마우스 VL 조합
B8: hz515H7 VH1 VL2 (VH 변형체 1 + VL 변형체 2) (antibody, human IgG1, kappa)
heavy: not shown
light: B7 light with S5T, A15L, K18R, V19A
B9: 항-CXCR4 Mab 301aE5 (마우스 모노클론 항체) (antibody, V domains shown)
VH: QVQLKESGPGLVAPSQSLSITCTVSGFSLTDYGVYWVRQPPGKGLEWLGMIWGDGTTDYNSALKSRLSISKDNSKSQVFLKMNTLQTDDTARYYCARGRQFGFDYWGQGTTLTVSS
VL: B3 VL with S22R, Y55F, A59I, D61E, A66D, E74G, Y76D, R83S, M95K, F98Y

Experiments:
[1] = biological target: T1, 인간 CXCR4 (케모카인 (C-X-C 모티브) 수용체 4) (human, UniProt P61073 1-352); test: cell-based or functional assay
T1 sequence (P61073 whole entry): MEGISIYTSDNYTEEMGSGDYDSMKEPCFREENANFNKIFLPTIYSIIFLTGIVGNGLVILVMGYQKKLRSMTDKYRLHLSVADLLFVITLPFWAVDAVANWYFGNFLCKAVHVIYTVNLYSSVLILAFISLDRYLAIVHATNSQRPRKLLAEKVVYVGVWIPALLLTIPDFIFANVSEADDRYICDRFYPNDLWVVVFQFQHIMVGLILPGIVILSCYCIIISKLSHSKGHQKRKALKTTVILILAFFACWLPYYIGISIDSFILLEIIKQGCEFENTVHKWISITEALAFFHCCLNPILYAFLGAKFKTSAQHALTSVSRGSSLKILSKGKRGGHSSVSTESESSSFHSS

[2] = biological target: CXCR4/Rluc + CXCR4/YFP (HEK293 세포의 CXCR4 동종이량체 BRET 파트너) (human; Renilla reniformis); test: cell-based or functional assay
Sequence of CXCR4/Rluc + CXCR4/YFP (HEK293 세포의 CXCR4 동종이량체 BRET 파트너) (human; Renilla reniformis) (chain, as listed by the source, chain 1 of 2): as the sequence (P61073 whole entry) above
Sequence of CXCR4/Rluc + CXCR4/YFP (HEK293 세포의 CXCR4 동종이량체 BRET 파트너) (human; Renilla reniformis) (chain, as listed by the source, chain 2 of 2): as the sequence (P61073 whole entry) above

[3] = biological target: T1, 인간 CXCR4 (케모카인 (C-X-C 모티브) 수용체 4); test: FACS on NIH3T3-CXCR4 cells (legend of Fig. 21)
[4] = biological target: T1, 인간 CXCR4 (케모카인 (C-X-C 모티브) 수용체 4); test: competition flow cytometry on NIH3T3-CXCR4 cells; competitor biotinylated mouse 515H7
[5] = biological target: T1, 인간 CXCR4 (케모카인 (C-X-C 모티브) 수용체 4); test: competition flow cytometry on NIH3T3-CXCR4 cells; competitor biotinylated mouse 515H7 (legend of Fig. 19)

| Binder | SDF-1-유도성 BRET 증가의 저해 [2] [%] | SDF-1-유도성 BRET 증가의 저해 백분율 [2] [%] | binding result [3] | further results |
| --- | --- | --- | --- | --- |
| B1 | 96 | – | – | IC50, 89.6 복제 저해, 마라비록 2 μg/ml 첨가 시 [1]: 0.2 µg/mL; IC50, 인간 PBMC에서 이중 친화성 X4R5 바이러스 89.6 복제 저해 (다수 회차 검정법) [1]: 2 µg/mL |
| B2 | – | 65 | binds | – |
| B3 | 69 | – | – | – |
| B4 | – | ~88 | binds | – |
| B5 | – | 33 | binds | – |
| B6 | – | 21 | binds | – |
| B7 | – | – | – | binding result [4]: binds |
| B8 | – | – | – | binding result [5]: binds |
| B9 | 69 | – | – | – |

— KR20140009174A (dated 2014)
